Results on two molecules are retold here after patent publication US12018084B2, “Anti-CXCR2 antibodies and uses thereof” (Cephalon LLC, priority 2018, dated 2024).

Values joined by “and” are separate entries in the source; they are usually repeats but may differ in a detail not shown here. Equal entries are not always repeated.

The target in data set [1] is T1, Human CXCR2 (Homo sapiens, UniProt P25025).
T1 sequence (P25025 1-360): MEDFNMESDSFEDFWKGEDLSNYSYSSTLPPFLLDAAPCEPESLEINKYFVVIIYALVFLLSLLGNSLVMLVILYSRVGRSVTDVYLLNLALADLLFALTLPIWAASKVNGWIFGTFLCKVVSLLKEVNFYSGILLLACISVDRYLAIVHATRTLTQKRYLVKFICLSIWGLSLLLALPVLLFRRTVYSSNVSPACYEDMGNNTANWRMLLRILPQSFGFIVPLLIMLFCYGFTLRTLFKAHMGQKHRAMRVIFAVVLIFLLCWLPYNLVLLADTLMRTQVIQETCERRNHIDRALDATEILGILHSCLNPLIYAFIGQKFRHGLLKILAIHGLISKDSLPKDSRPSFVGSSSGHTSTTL
Nature of the data set: Flow cytometry binding assay, Expi293F cells transiently transfected with human CXCR2. Details: host or cells: Expi293F cells, vector pTT5. Here is the method:
For each 10 mL transfection, lipid-DNA complexes were prepared by diluting 10 μg of plasmid DNA in Opti-MEM™ I Reduced Serum Medium (Cat. no. 31985-062) to a total volume of 1.0 mL. 54 μL of ExpiFectamine™ 293 Reagent was diluted in Opti-MEM™ I medium to a total volume of 1.0 mL. Transfections were carried out according to manufacturer's instructions. The cells were incubated in a 37° C. incubator with a humidified atmosphere of 8% CO2 in air on an orbital shaker rotating at 200 rpm. Approximately 18-24 hours post-transfection, the cell viability was evaluated and transfected cells harvested for use.
(§1) Harvested cells were resuspended in FACS buffer (1×PBS+0.5% (w/v) bovine serum albumin (BSA)+2 mM EDTA pH 7.2). Approximately 2×10^5 cells were added per well in a 96-well round-bottomed plate. Cells were pelleted by centrifugation at 400 g for 5 mins at 4° C. and supernatants discarded. 25 μL of each test antibody or control antibody was added to the cells and incubated for 30 minutes at 4° C. Cells were washed twice in 100 μL FACS buffer followed by centrifugation at 400 g for 5 mins at 4° C.
For detection, 50 μL of secondary antibody (Table 2) was added to relevant samples. Commercially available antibodies that bound to transfected CXCR family members were used as positive controls to ensure that the cells were expressing the receptors. Cells were washed twice in 200 μL of FACS buffer followed by centrifugation at 400 g for 5 mins at 4° C. Before sample acquisition, cells were resuspended in 100 μL of FACS buffer. Samples were acquired using the high throughput sampler on a FACSCanto™ II cytometer (Beckton-Dickinson).
Binding of BKO-4A8 and variants thereof was detected by incubation of fluorochrome-conjugate anti-human IgG light chain lambda antibody. The binding activity of antibodies tested, quantified as mean fluorescent intensity, was independent of the antibody Fc region as illustrated in FIG. 9.

The next data set concerns cynomolgus monkeys. Nature of the data set: LPS induced acute lung inflammation in cynomolgus monkey. The class given is in vivo. Here is the method: Biologics naïve (i.e. not previously administered exogenous biologics) male cynomolgus monkeys were randomized into groups receiving vehicle or the anti-CXCR2 antibody BKO-4A8-101c administered by intravenous administration at a dose of 1 mg/kg on days 0, 14, and 28. One hour post-treatment of test antibodies on day 0, animals were exposed to aerosolized bacterial lipopolysaccharide (LPS) by inhalation of 20 μg/L for 5 mins (total dose 20 μg/kg). This is a well-established model of acute lung inflammation. Inflammatory responses were characterized at 24 hours after LPS exposure by total and differential cell counts of bronchoalveolar lavage fluid of the left lung and compared to matched counts from naïve animals at pre-treatment day 14. Blood was collected at various time points for differential cell count and serum collected for pharmacokinetic analysis.

The subject of data set [2] is human CXCR family members (CXCR1, CXCR3, CXCR4, CXCR5, CXCR6, CXCR7). As to the kind of experiment: Flow cytometry binding to other human CXCR family members on transfected Expi293F cells. The note with it: FIG. 11. Here is the method: as §1
For detection, 50 μL of secondary antibody (Table 2) was added to relevant samples. Commercially available antibodies that bound to transfected CXCR family members were used as positive controls to ensure that the cells were expressing the receptors. Cells were washed twice in 200 μL of FACS buffer followed by centrifugation at 400 g for 5 mins at 4° C. Before sample acquisition, cells were resuspended in 100 μL of FACS buffer. Samples were acquired using the high throughput sampler on a FACSCanto™ II cytometer (Beckton-Dickinson). […]
The specificity of the anti-CXCR2 antibody BKO-4A8-101c was tested by assessing binding activity on Expi293F™ cells transiently transfected to express closely related human CXCR family members as illustrated in FIG. 11. Binding of BKO-4A8-101c was detected by incubation of fluorochrome-conjugate anti-human IgG antibody.

The target of data set [3] is T1, Human CXCR2. Nature of the data set: Calcium flux assay, HTS002C-CHEMISCREEN human CXCR2 calcium-optimized cell line. The class given is cell-based. Here is the method:
One of the signaling pathways downstream of CXCR2 activation that has a role in cell chemotaxis is characterized by calcium mobilization (flux). The ability of BKO-4A8-101c to inhibit human CXCR2 ligand-induced calcium flux was tested in the commercially available HTS002C-CHEMISCREEN™ human CXCR2 chemokine receptor calcium-optimized cell line.
The Fluo-4 NW calcium assay kit (Life Technologies) was used according to manufacturer's protocol for in-cell measurement of calcium mobilization, which was read using a FLIPR Tetra high-throughput cellular screening system (Molecular Devices). The peak response minus the basal response from each well was used to determine inhibition dose response curves fitting a four-parameter logistic equation and IC50 values.

[4] abbreviates: 1 mg/kg intravenous days 0, 14, 28.

B1: BKO-4A8: parental anti-CXCR2 antibody, VH SEQ ID NO: 17, VL SEQ ID NO: 18 (antibody, V domains shown)
VH: EVQLLESGGGLVQPGGSLRLSCAASGFTFSSSTMSWVRQAPGKGLEWVSAISGRGRNTYYADSVKGRFTISRDNSRNTLYLQMNSLRAEDTAVYYCAIQMGYWGQGILVTVSS
VL: QSALTQPPSASGSPGQSVTISCIGTSSDVGGYNYVSWYQQHPDKAPKLMIYEVNKRPSGVPDRFSGSKSGNTASLTVSGLQAEDEADYYCSSYAGNNNFGVFGGGTKLTVL
modifications: BKO_4A8_VH; BKO_4A8_VL
As to B1, the “Max binding (MFI)” value with Human CXCR2 [1] (combinatorial variants with light chain c, listed as 4A8 Control) is 62074 MFI and 82797 MFI. Moreover, the EC50 with Human CXCR2 [1] (combinatorial variants, Table 11) was 0.4 nM.

B2: 101c: VH SEQ ID NO: 108, VL SEQ ID NO: 110; renamed BKO-4A8-101c (antibody, V domains shown)
VH: EVQLLESGGGLVQPGGSLRLSCAASGFTFSSSTQSWVRQPPGKGLEWVSAISGRGRSTYYADSVKGRFTISRDNSKNTLYLQMNSLRAEDTAVYYCAIQAGYWGQGILVTVSS
VL: QSALTQPPSASGSPGQSVTISCIGTSSDVGGYNYVSWYQQHPGKAPKLMIYEVSKRPSGVPDRFSGSKSGNTASLTVSGLQAEDEADYYCSSYAGSNNFGVFGGGTKLTVL
modifications: 4A8 VH Variant 101 M34Q_A40P_N56S_R75K_M96A; 4A8 VL variant c D41G_N52S_N94S
notes: renamed BKO-4A8-101c
For the molecule B2, the LPS-induced pulmonary neutrophilia entry in the data set with cynomolgus monkeys (1 mg/kg intravenous 1 hour before LPS, BAL 24 hours after LPS) is recorded as “markedly inhibited”. Further, in the data set with cynomolgus monkeys (setting [4]), the “blood neutrophil counts following repeat dosing” value was “did not induce measurable changes”. In the data set on cynomolgus monkeys (setting [4]), the “tolerability, body weight” value is on record as “well tolerated with no loss in body weight”. Further, the “specificity of binding among human CXCR family members” value in data set [2] is “strongly and exclusively bind human CXCR2”. Moreover, in the data set with Human CXCR2 [3] (CXCL1 at EC50), the “CXCL1 Maximal Inhibition %” value amounted to 93%. The “CXCL8 Maximal Inhibition %” value in the data set with Human CXCR2 [3] (CXCL8 at EC50) was found to be 9%. Further, the “Maximal Inhibition % Mean” value is recorded as 91% with Human CXCR2 [3] (Hu CXCL1); 88% in the data set with Human CXCR2 [3] (Hu CXCL2); 52% with Human CXCR2 [3] (Hu CXCL3); 81% with Human CXCR2 [3] (Hu CXCL5); 81% with Human CXCR2 [3] (Hu CXCL6); 43% with Human CXCR2 [3] (Hu CXCL7). In the data set with Human CXCR2 [3] (Hu CXCL8), the “Maximal Inhibition % Mean” value was 9%.
